The supplement of paper PMC9170038

Legend:
MS2 coat protein = assay: apparent KD of MS2 coat protein; higher = weaker reporter binding; conditions: Eterna round: R107
Procedure: (§1)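 RNA-MaP round R107: designed RNA switches with theophylline, tryptophan, arginine or FMN aptamers are transcribed on-chip within common flanks. They are titrated with SNAP-549-labelled MS2 coat protein in RNA-MaP buffer (100 mM Tris pH 7.5, 80 mM KCl, 4 mM MgCl2), without ligand or with the indicated ligand. Median apparent KD per design.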

[1] = system: K4 kissing-loop RNA reporter; assay: apparent KD of K4 kissing-loop reporter; higher = weaker reporter binding; conditions: Eterna round: R107;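 note: bound reporter read as fluorescence of individual clusters on recovered sequencing chips by microscopy, with normalized cluster intensities fitted with a binding model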
Procedure: as §1, with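 “a labelled K4 kissing-loop RNA reporter” for “SNAP-549-labelled MS2 coat protein”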

[2] = input ligand: theophylline 20 uM
[3] = input ligand: tryptophan 2.4 mM
[4] = input ligand: theophylline 2 mM

Row | Sequence | apparent KD of MS2 coat protein (MS2 coat protein; input ligand: arginine 13.2 mM) | apparent KD of MS2 coat protein (MS2 coat protein; [2]) | apparent KD of MS2 coat protein (MS2 coat protein; [3]) | apparent KD of MS2 coat protein (MS2 coat protein; input ligand: none) | apparent KD of MS2 coat protein (MS2 coat protein; [4]) | apparent KD of K4 kissing-loop reporter ([1]; input ligand: FMN 200 uM) | apparent KD of K4 kissing-loop reporter ([1]; input ligand: arginine 13.2 mM) | apparent KD of K4 kissing-loop reporter ([1]; input ligand: none) | apparent KD of K4 kissing-loop reporter [1, 2] | apparent KD of K4 kissing-loop reporter [1, 3]
1 | ACAUGAGGAUCACCCAUGUGCAGCACGGAUACCAGCGUCCUAGUGCGCCCUUGGCAGCCGGACAUGAGGAUCACCCAUGUGUGGG [Exclusion Theophylline A GF30] | 50.2 nM | 135 nM | 95.7 nM |  |  |  |  |  |  | 
2 | UUCAAAGGGAACGGUGCUGGUAGCAGAGAUACCAGAGUAAUGAUACUCCCUUGGCAGCUCAGUACAUGAGGAUCACCCAUGUAAU [Exclusion Theophylline A GF24] | 13.8 nM | 20.2 nM | 15.1 nM | 13.5 nM | 15.9 nM |  |  |  |  | 
3 | GGCCAAAAGGCGGCCGCCACUCAAGAGUAGCAUGGAAAGACAUGAGGAUCACCCAUGUAAAGAAAGAGGACCGGGCCAAAAGGCC | 28.4 nM | 141 nM | 193 nM | 117 nM | 262 nM |  |  |  |  | 
4 | CACAUGAGGAUCACCCAUGUGUAAUAUGAAGGAGCGUCGGAAAUGACAGGUAGGUCGCAUGAAAUGCAAGUGUGUGAGGUUGUGA [EAA NP+V+V2 #12] | 9.17 nM | 17.7 nM | 10.9 nM | 10 nM | 10.5 nM |  |  |  |  | 
5 | GAUGAACUAUAUGAUACCAGACAACAUGAGGAUCACCCAUGUGAAUGUCGUCCUCUGCCUGUCCCUUGGCAGCGUAUAGUUUAUC [XTheo B #15] | 29.3 nM | 67.6 nM | 20.3 nM |  |  |  |  |  |  | 
6 | UGUAUGUGAUUUGAUACCAGACCAGCUGGUGGUACCUGAGGAACACCCAGGUAGGUUUGGGUCCCUUGGCAGCAAAUCGCAUACU [SS Theo B #24 Ms7] | 36.2 nM | 34.4 nM | 33.3 nM |  | 21.4 nM |  |  |  |  | 
7 | UGUACAUGAGGAUCACCCAUGUUACGCGAUACCAGACAUGAGAGUGUCCCUUGGCAGCGUGGAGCUGAUACGGCGGGAAGCCGGA [#10 SameState-TheophyllineA] | 16.1 nM | 50.2 nM | 45.9 nM |  |  |  |  |  |  | 
8 | AAUGUAUGGCACAUGAGGAUCACCCAUGUGCGAGGACCGGUACGGCCGCCACUCGGUCCUGGGUUCUUAUUACUAUACAUUAAUG [XTryp A #15] | 9.78 nM | 16 nM | 27.1 nM | 11 nM | 14.4 nM |  |  |  |  | 
9 | AUACCUAAUGUUACAUUUACCUUAUCAGAUACCAGACUUUACGUUGUCCCUUGGCAGCUGUAUCACAUGAGGAUCACCCAUGUUG [JR_SSTheophyA_Sub010] | 17.1 nM | 19.2 nM | 15.3 nM |  |  |  |  |  |  | 
10 | AGUAGUUGACAAAAGUCAGCUACAAUUGAAGGAGCGGGAUCCUUCCCAGGUAGGUCGCAAUAACAUGAGGAUCACCCAUGUCAAA [ArgAS 4 #BothOrNeither #OpenEnded] | 15.9 nM | 26.6 nM | 20.3 nM | 27.7 nM | 20.4 nM |  |  |  |  | 
11 | GGAUAGGACAGAAGGAGCGACAUGGCAGAAACUGCAAUCCUCCUACACGAGGAUCACCCGUGUCAGGUAGGUCGCUGUCCUAUCG [ArgXB 12 #Zipper #MS2Left #StaticStem #Blueprint] | 25.6 nM | 34.8 nM | 27.4 nM | 24.7 nM | 36.9 nM |  |  |  |  | 
12 | CGAUAGAUACGAAGGAGCGACAUGAGGAUCACCCAUGUCUACCACGUCGAAAGACGCUCAUGUCAGGUAGGUCGCGUAUUUAUCG [Astros-Eli-mod8] | 60.3 nM | 124 nM | 101 nM | 122 nM | 156 nM |  |  |  |  | 
13 | UGGUACAUGAGGAUCACCCAUGUUCCAGAUACCAGACUCCCGGUGGUCCCUUGGCAGCUGGUGGUACAUGAGGAUCACCCAUGUG [Exclusion Theophylline A GF17] | 28.5 nM | 44.7 nM | 30.8 nM |  |  |  |  |  |  | 
14 | ACACCAUACAUGAGGAUCACCCAUGUUACACGAGGACCGGUACGGCCGCCACUCGAAUUCAGGAAACCUCGGAUAAUAUUGUGAA [JR_SS-TryptA_Sub001] | 22.3 nM | 50.1 nM |  |  | 32.4 nM |  |  |  |  | 
15 | GCCGUACGCAUGGAUACCAGCACAGGCCGAAGUGAUGUUUCGUGCGUAUAUUUGUGCUACUGCCCUUGGCAGCCAUGCGUACGGC |  |  |  |  |  | 75.8 nM | 66.9 nM | 73.9 nM | 66.5 nM | 75.2 nM
16 | GUGCAGUGAUGUUGCACGAGGAAAGACGAUACCAGCCGUAAAUAAGGCCCUUGGCAGCGUAGGCUAGCAUAAAGCAUGCUAGUCC [Edeson] |  |  |  |  |  | 131 nM | 98.8 nM | 111 nM | 98.4 nM | 78 nM

Row | Sequence | apparent KD of MS2 coat protein (MS2 coat protein; input ligand: arginine 13.2 mM) | apparent KD of MS2 coat protein (MS2 coat protein; [2]) | apparent KD of MS2 coat protein (MS2 coat protein; [3]) | apparent KD of MS2 coat protein (MS2 coat protein; input ligand: none) | apparent KD of MS2 coat protein (MS2 coat protein; [4]) | apparent KD of K4 kissing-loop reporter ([1]; input ligand: FMN 200 uM) | apparent KD of K4 kissing-loop reporter ([1]; input ligand: arginine 13.2 mM) | apparent KD of K4 kissing-loop reporter ([1]; input ligand: none) | apparent KD of K4 kissing-loop reporter [1, 2] | apparent KD of K4 kissing-loop reporter [1, 3]
17 | AGACUACUGACAGGAUAUAACAUCCUGGUCGUAUACCGAAAGGUAUACGAUUUCCUUCUAGUGAUGUUAGAAGGGUCGGUAGUCA [Omei KL FMN B Exc B v14] |  |  |  |  |  | 103 nM | 78 nM | 90.7 nM | 70.3 nM | 82.9 nM
18 | GACCGGCCGACGAGUGAUGUUCGAUGGGAAGGAGCGCGAAGAAAUGCAGGUAGGUCGCCCUAAGUAAUUGAAACGGCCGGAUUAU [2.)] |  |  |  |  |  | 137 nM | 143 nM | 128 nM | 212 nM | 102 nM
19 | AGGUUUUGAUUAGGAUAUGCACUGAGGAGGAGAAUAUAGUGAUGUUAUAUAAGAGGAAGUAGUAGAGUAGAAGGGAUUGAGGUUU [SSFMNB.S] |  |  |  |  |  | 208 nM | 167 nM | 224 nM | 210 nM | 158 nM
20 | CGGAUGUAGUGAUGUUAUAUUAGAUGUAGACGAGGACCGGUACGGCCGCCACUCGUGACGGCUGCUAGCGCGUUGCGAGGUGUGC [ExTryptoA.Cm] |  |  |  |  |  | 729 nM | 575 nM | 657 nM | 690 nM | 603 nM
21 | GGUAGCAUGGCGGCCGCCACUAAAACUGGAUCGGAAACGAUCCAGUAAUUUCGAGUGAUGUUCGUUAGGACCGGGCCAUGCUACC |  |  |  |  |  | 362 nM | 254 nM | 283 nM | 257 nM | 236 nM
22 | UGAUACCAGACUGAUACCAGCAGUGAUGUUGCUGAUAAGGGUAGAGUCAAAGACUCUACCUGCCCUUGGCAGCAGUCUGGUAUCU [TheoBX 14 #SwitchBubble #StaticStem] |  |  |  |  |  | 167 nM | 146 nM | 167 nM | 173 nM | 156 nM
23 | UGUCAUGGAAACAUGAACGUUGAAAUAUGACGAGGACCGGUACGGCCGCCACUCGAGUAAUGGUCAGUGAUGUUGACUGGAUUAA [KL-SSTryp-A form1 sub5 #split stat1] |  |  |  |  |  | 59.9 nM | 110 nM | 81.9 nM | 103 nM | 51.9 nM
24 | AAGUACACGAUAGUGUACACCUAGUGAUGUUAGGAUAUGCAGAUAUGCAGAAGGAACGAGUCAUCUGACAAUAGUCGGAUGACAA [FmnAX 8 #OpenEnded #K4Early] |  |  |  |  |  | 564 nM | 70.2 nM | 100 nM | 103 nM | 82.4 nM
25 | CGUUUAUAGCAGGAUACCAGUACCCAUAAAGUACGUUAAUAGUAGAGUGAUGUUCUAAAGUACCCUUGGCAGCUUCGAGUGAGUG [ExTheophylB.R] |  |  |  |  |  | 72.5 nM | 114 nM | 85.1 nM | 103 nM | 54 nM
26 | AUGCUUAUAAUAACACUAUAUACAACUGAAGGAGCGACAAUAAAGUCAGGUAGGUCGCAGAAUAAAUGAGUGAUGUUCAUUUUUA [JR_ExcArginiA_Sub010] |  |  |  |  |  | 113 nM | 138 nM | 113 nM | 144 nM | 84.2 nM
27 | GGGAGUGAUGUUCCCGCGUUGACGGUCCUCCGAGGACCGGUACGGCCGCCACUCGAAACCCAGUGAUGUUGGGACUCACCGUACU [Exclusion Tryptophan A GF 11] |  |  |  |  |  | 511 nM | 504 nM | 511 nM | 620 nM | 435 nM
28 | AAUUAAUACAGAAGGAGCGUGUAUUUAACUACAAUUAUCUUAGCGAGUGAUGUUCGUUUUACACAGGUAGGUCGCUGUAUAUUUA [JR_ExcArginiB_Sub010] |  |  |  |  |  | 201 nM | 279 nM | 235 nM | 262 nM | 157 nM
29 | UGGAUAUCGUUUAGUCUGGUGAGCUCAGAUACCAGACUAGCGAUAGUCCCUUGGCAGCUGAUUAUGAUUGAGUGAUGUUCAAUCG [Theo A Ex t9b] |  |  |  |  |  | 168 nM | 142 nM | 168 nM | 151 nM | 157 nM
30 | CCUAUCUCAUACGAUACCAGUCAAUGAUCUUUGAUCAAUGCCAUCACCGAGUGAUGUUCGGACCCUUGGCAGCGUAUGGGAUAGG [whbob_Ex_Theo_B_sa102] |  |  |  |  |  | 267 nM | 212 nM | 269 nM | 364 nM | 251 nM
31 | GAGCCAGAGGUUGCUGCGGGUUCCAGAGAUACCAGCCGUAUUGAAGGCCCUUGGCAGCUCGAGUGAUGUUCGAGCCGCCUCUGAC [Isquleorve] |  |  |  |  |  | 119 nM | 104 nM | 97.2 nM | 108 nM | 110 nM
